Data from patent US20260098059A1 (ENDOMET BIOSCIENCES, published 2026).
Values joined by “and” are separate entries in the source; they are usually repeats but may differ in a detail not shown here. Equal values may be shown once. Bridges are numbered along the chain shown (N, C = ends). Where no end group is shown, it is not given here. [ ]: non-standard residue; d: D form. The star is where a group is joined. NMeW = CN[C@@H](Cc1c[nH]c2ccccc12)C(=O)O; Palmitoyl = CCCCCCCCCCCCCCCC(=O)*; Chg = N[C@H](C(=O)O)C1CCCCC1; αMeV = CC(C)[C@](C)(N)C(=O)O; αMeS = C[C@](N)(CO)C(=O)O; NMeA = CN[C@@H](C)C(=O)O; GABA = NCCCC(=O)O; βAla = NCCC(=O)O

T1: β-catenin (UniProt P35222 134-665, limits assumed, biotinylated in the SPR and plate assays)
T1 sequence (looked up): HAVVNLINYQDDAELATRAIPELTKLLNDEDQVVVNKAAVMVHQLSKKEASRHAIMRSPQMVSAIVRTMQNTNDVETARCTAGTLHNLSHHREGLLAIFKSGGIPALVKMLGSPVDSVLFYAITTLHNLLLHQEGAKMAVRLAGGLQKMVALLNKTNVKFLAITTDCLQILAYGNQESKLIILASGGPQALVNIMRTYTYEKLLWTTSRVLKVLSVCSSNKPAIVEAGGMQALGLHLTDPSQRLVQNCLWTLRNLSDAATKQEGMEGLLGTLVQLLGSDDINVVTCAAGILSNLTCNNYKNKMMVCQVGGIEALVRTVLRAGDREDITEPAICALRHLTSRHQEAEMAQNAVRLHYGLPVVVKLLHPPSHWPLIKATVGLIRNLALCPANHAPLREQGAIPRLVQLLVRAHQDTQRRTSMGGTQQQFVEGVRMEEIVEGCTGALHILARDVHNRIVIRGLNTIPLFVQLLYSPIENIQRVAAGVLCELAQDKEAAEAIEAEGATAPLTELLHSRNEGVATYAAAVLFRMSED


Target: T1, β-catenin
Test: cell-based or functional assay

| Binder | Wnt Reporter EC50 |
| --- | --- |
| Ac-PQKILDEHVQRVMK-NH2 (bridge 3-7; also: K3* and E7* marked (linkage not given here)) [SEQ ID NO: 485] | > 30 µM |
| H-MSRMWFLISFWG-OH [SEQ ID NO: 41] | ≤ 7.5 µM |
| H-MSRKWFLISFWG-OH [SEQ ID NO: 59] | > 30 µM |
| H-MSRMLFLISFWG-OH [SEQ ID NO: 52] | > 15 µM and ≤ 22.5 µM |
| H-MGRMWFLISFWG-OH [SEQ ID NO: 67] | ≤ 7.5 µM |
| H-MSRMWFLFSFWG-OH [SEQ ID NO: 63] | ≤ 7.5 µM |
| H-MSRMWFLISLWG-OH [SEQ ID NO: 68] | > 7.5 µM and ≤ 15 µM |
| H-MSRMWFPISFWG-OH [SEQ ID NO: 65] | > 30 µM |
| H-MSRMWFLISSWG-OH [SEQ ID NO: 54] | > 15 µM and ≤ 22.5 µM |
| AEEDPQTILDDHLSRVLK (HELM PEPTIDE1{[ac].[bAla].E.E.D.P.Q.T.I.L.D.D.H.L.S.R.V.L.K.[am]}$$$$V2.0; SMILES CC[C@H](C)[C@H](NC(=O)[C@@H](NC(=O)[C@H](CCC(N)=O)NC(=O)[C@@H]1CCCN1C(=O)[C@H](CC(=O)O)NC(=O)[C@H](CCC(=O)O)NC(=O)[C@H](CCC(=O)O)NC(=O)CCNC(C)=O)[C@@H](C)O)C(=O)N[C@@H](CC(C)C)C(=O)N[C@@H](CC(=O)O)C(=O)N[C@@H](CC(=O)O)C(=O)N[C@@H](Cc1c[nH]cn1)C(=O)N[C@@H](CC(C)C)C(=O)N[C@@H](CO)C(=O)N[C@@H](CCCNC(=N)N)C(=O)N[C@H](C(=O)N[C@@H](CC(C)C)C(=O)N[C@@H](CCCCN)C(N)=O)C(C)C) [SEQ ID NO: 412] | > 30 µM |
| Palmitoyl-PQKILDEHVQRVMK-NH2 (bridge 3-7; also: K3* and E7* marked (linkage not given here)) [SEQ ID NO: 487] | ≤ 7.5 µM |
| {Palmitoyl-GABA}-W[NMeW]E[αMeS]ILDEH[αMeV]QRVW-OH [SEQ ID NO: 400] | > 7.5 µM and ≤ 15 µM |
| Ac-W[NMeA]QKILDEH[Chg]EAVWK (lactam 11-15, 4-8 (inferred)) [SEQ ID NO: 476] | > 7.5 µM and ≤ 15 µM |
| PQKILDEHVQRVMK-NH2 (bridge 3-7; not fully specified (N-terminus); printed as H23C11C(O)-PQK*ILDE*HVQRVMK-NH2; also: K3* and E7* marked (linkage not given here)) [SEQ ID NO: 486] | > 30 µM |
| WAQKILNDHGQAV (HELM PEPTIDE1{[CCCCCCCCCCCC(=O)[*:2]].W.[meA].Q.K.I.L.N.D.H.[O=C([C@@H](N[*:1])C1CCCCC1)[*:2]].Q.A.V.[am]}$PEPTIDE1,PEPTIDE1,5:R3-9:R3$$$V2.0; SMILES CCCCCCCCCCCC(=O)N[C@@H](Cc1c[nH]c2ccccc12)C(=O)N(C)[C@@H](C)C(=O)N[C@@H](CCC(N)=O)C(=O)N[C@H]1CCCCNC(=O)C[C@@H](C(=O)N[C@@H](Cc2c[nH]cn2)C(=O)N[C@H](C(=O)N[C@@H](CCC(N)=O)C(=O)N[C@@H](C)C(=O)N[C@H](C(N)=O)C(C)C)C2CCCCC2)NC(=O)[C@H](CC(N)=O)NC(=O)[C@H](CC(C)C)NC(=O)[C@H]([C@@H](C)CC)NC1=O) [SEQ ID NO: 453] | ≤ 7.5 µM |
| WAQKILNDHGQAV (HELM PEPTIDE1{[CCCCCCCCCCCCCCCC(=O)[*:2]].W.[meA].Q.K.I.L.N.D.H.[O=C([C@@H](N[*:1])C1CCCCC1)[*:2]].Q.A.V.[am]}$PEPTIDE1,PEPTIDE1,5:R3-9:R3$$$V2.0; SMILES CCCCCCCCCCCCCCCC(=O)N[C@@H](Cc1c[nH]c2ccccc12)C(=O)N(C)[C@@H](C)C(=O)N[C@@H](CCC(N)=O)C(=O)N[C@H]1CCCCNC(=O)C[C@@H](C(=O)N[C@@H](Cc2c[nH]cn2)C(=O)N[C@H](C(=O)N[C@@H](CCC(N)=O)C(=O)N[C@@H](C)C(=O)N[C@H](C(N)=O)C(C)C)C2CCCCC2)NC(=O)[C@H](CC(N)=O)NC(=O)[C@H](CC(C)C)NC(=O)[C@H]([C@@H](C)CC)NC1=O) [SEQ ID NO: 454] | ≤ 7.5 µM |
| WAESILKEHVQRVWG (HELM PEPTIDE1{[CCCCCCCCCCCC(=O)[*:2]].W.[meA].E.S.I.L.K.E.H.V.Q.R.V.W.G.[am]}$PEPTIDE1,PEPTIDE1,4:R3-8:R3$$$V2.0; SMILES CCCCCCCCCCCC(=O)N[C@@H](Cc1c[nH]c2ccccc12)C(=O)N(C)[C@@H](C)C(=O)N[C@H]1CCC(=O)NCCCC[C@@H](C(=O)N[C@@H](CCC(=O)O)C(=O)N[C@@H](Cc2c[nH]cn2)C(=O)N[C@H](C(=O)N[C@@H](CCC(N)=O)C(=O)N[C@@H](CCCNC(=N)N)C(=O)N[C@H](C(=O)N[C@@H](Cc2c[nH]c3ccccc23)C(=O)NCC(N)=O)C(C)C)C(C)C)NC(=O)[C@H](CC(C)C)NC(=O)[C@H]([C@@H](C)CC)NC(=O)[C@H](CO)NC1=O) [SEQ ID NO: 451] | ≤ 7.5 µM |

More lines, now with the values ahead:

| Wnt Reporter EC50 | Binder |
| --- | --- |
| > 7.5 µM and ≤ 15 µM | H-MSRMWFLVSFWG-OH [SEQ ID NO: 56] |
| > 30 µM | H-MSRMWFLTSFWG-OH [SEQ ID NO: 62] |
| > 7.5 µM and ≤ 15 µM | H-MNRMWFLISFWG-OH [SEQ ID NO: 61] |
| ≤ 7.5 µM | H-MSRIWFLISFWG-OH [SEQ ID NO: 55] |
| > 7.5 µM and ≤ 15 µM | H-MSRMWLLISFWG-OH [SEQ ID NO: 60] |
| > 30 µM | H-MSRMWFLNSFWG-OH [SEQ ID NO: 70] |
| > 30 µM | MSRMAFLISFWG (HELM PEPTIDE1{M.S.R.M.[meA].F.L.I.S.F.W.G}$$$$V2.0; SMILES CC[C@H](C)[C@H](NC(=O)[C@H](CC(C)C)NC(=O)[C@H](Cc1ccccc1)NC(=O)[C@H](C)N(C)C(=O)[C@H](CCSC)NC(=O)[C@H](CCCNC(=N)N)NC(=O)[C@H](CO)NC(=O)[C@@H](N)CCSC)C(=O)N[C@@H](CO)C(=O)N[C@@H](Cc1ccccc1)C(=O)N[C@@H](Cc1c[nH]c2ccccc12)C(=O)NCC(=O)O) [SEQ ID NO: 50] |
| > 7.5 µM and ≤ 15 µM | H-MSRTWFLISFWG-OH [SEQ ID NO: 48] |
| > 7.5 µM and ≤ 15 µM | H-MSRVWFLISFWG-OH [SEQ ID NO: 64] |
| ≤ 7.5 µM | WXQKILNDHGQRVW (HELM PEPTIDE1{[CCCCCCCCCCCC(=O)[*:2]].W.[Aib].Q.K.I.L.N.D.H.[O=C([C@@H](N[*:1])C1CCCCC1)[*:2]].Q.R.V.W.[am]}$PEPTIDE1,PEPTIDE1,5:R3-9:R3$$$V2.0; SMILES CCCCCCCCCCCC(=O)N[C@@H](Cc1c[nH]c2ccccc12)C(=O)NC(C)(C)C(=O)N[C@@H](CCC(N)=O)C(=O)N[C@H]1CCCCNC(=O)C[C@@H](C(=O)N[C@@H](Cc2c[nH]cn2)C(=O)N[C@H](C(=O)N[C@@H](CCC(N)=O)C(=O)N[C@@H](CCCNC(=N)N)C(=O)N[C@H](C(=O)N[C@@H](Cc2c[nH]c3ccccc23)C(N)=O)C(C)C)C2CCCCC2)NC(=O)[C@H](CC(N)=O)NC(=O)[C@H](CC(C)C)NC(=O)[C@H]([C@@H](C)CC)NC1=O) [SEQ ID NO: 456] |
| ≤ 7.5 µM | W[NMeA]QKILDEH[Chg]EAVWK (lactam 11-15, 4-8 (inferred); not fully specified (N-terminus); printed as H23C11C(O)-NH-W-NMeA-QK*ILDE*H-Chg-E*AVWK*) [SEQ ID NO: 477] |
| > 7.5 µM and ≤ 15 µM | Palmitoyl-[βAla]W[NMeW]E[αMeS]ILDEH[αMeV]QRVW-OH (SMILES CCCCCCCCCCCCCCCC(=O)NCCC(=O)N[C@@H](Cc1c[nH]c2ccccc12)C(=O)N(C)[C@@H](Cc1c[nH]c2ccccc12)C(=O)N[C@@H](CCC(=O)O)C(=O)N[C@@](C)(CO)C(=O)N[C@H](C(=O)N[C@@H](CC(C)C)C(=O)N[C@@H](CC(=O)O)C(=O)N[C@@H](CCC(=O)O)C(=O)N[C@@H](Cc1c[nH]cn1)C(=O)N[C@](C)(C(=O)N[C@@H](CCC(N)=O)C(=O)N[C@@H](CCCNC(=N)N)C(=O)N[C@H](C(=O)N[C@@H](Cc1c[nH]c2ccccc12)C(=O)O)C(C)C)C(C)C)[C@@H](C)CC) [SEQ ID NO: 399] |
